Assay results from patent US20050223436A1, “EPSP synthase highly tolerant to glyphosate” (priority 2003, published 2005).

Key:
E. coli JM109 = test: Glyphosate tolerance of E. coli JM109 transformants on MOPS media plates; format: cell-based; settings: bacteria transformed with DNA encoding the enzyme (summary of Example 1)
From the text: A SuperCos1 Cosmid Vector kit (Stratagene Co., Ltd) was used to construct a community genomic DNA cosmid library. The community genomic DNA was digested with restriction endonuclease Sau3AI at 0.006 unit/microgram purified DNA. DNA fragments of about 40 kb were collected using the freeze-thaw method, and then ligated with SuperCos1/BamH1 vector. A cosmid genomic DNA library was constructed according to the manual of Stratagene Co., Ltd. For screening of glyphosate tolerant clones, JM109 E. coli was used as the acceptor bacterium for the genomic library construct, as glyphosate is only effective on an inhibitory medium such as M9 and MOPS. The ligated DNA was packaged into lambda phage particles (Stratagene, Gigapack Gold) according to the manufacturer's protocol. E. coli strain JM109 was infected with the packaged product. The transformants were selected on tetracycline LB media. Positive clones were then plated on LB media containing tetracycline and tetracycline+kanamycin, respectively. Clones growing on both media were considered as negative recombinants resulting from vector ligated with vector DNA. The number of positive transformants was calculated as the total number of colonies minus background false negative colonies. This number was used to determine the titer of the genomic library, which was 4×10^6 pfu/ml, meeting the requirement for library construction (>10^6 pfu/ml). […]

tobacco = test: Glyphosate tolerance of transgenic tobacco; format: in vivo; settings: transgenic plants, greenhouse assays
Description: (4) Transformation of tobacco was carried out according to the leaf disc transformation protocol, using sterilized tissue of a healthy leaf of about 2 weeks old. The main vein was removed and the leaf was cut into small pieces of 2 cm^2.
(8) After development of the roots, plants were taken out. The attached solid culture media was washed off with sterile water. The plants were initially kept in a high humidity environment such as a plastic container with a glass cover for a few days. After the plants had grown stronger, the glass covers were removed, and the plants were transferred to solid culture media containing 10 mM glyphosate for screening of glyphosate tolerant plants.
(10) Glyphosate tolerance assays in greenhouse also confirmed that the transgenic plants could grow well in media containing 15 mM glyphosate.

B1: EPSP synthase: novel 444 amino acid EPSP synthase highly tolerant to glyphosate, encoded by SEQ ID NO:1/3 (protein, listed as Unknown bacterium)
chain: MACLPDDSGPHVGHSTPPRLDQEPCTLSSQKTVTVTPPNFPLTGKVAPPGSKSITNRALLLAALAKGTSRLSGALKSDDTRHMSVALRQMGVTIDEPDDTTFVVTSQGSLQLPAQPLFLGNAGTAMRFLTAAVATVQGTVVLDGDEYMQKRPIGPLLATLGQNGIQVDSPTGCPPVTVHGMGKVQAKRFEIDGGLSSQYVSALLMLAACGEAPIEVALTGKDIGARGYVDLTLDCMRAFGAQVDAVDDTTWRVAPTGYTAHDYLIEPDASAATYLWAAEVLTGGRIDIGVAAQDFTQPDAKAQAVIAQFPNMQATVVGSQMQDAIPTLAVLAAFNNTPVRFTELANLRVKECDRVQALHDGLNEIRPGLATIEGDDLLVASDPALAGTACTALIDTHADHRIAMCFALAGLKVSGIRIQDPDCVAKTYPDYWKAWPSLGVHLND
glyphosate concentration of media in which transformed bacteria grew (E. coli JM109): 10 to 150 mM
glyphosate concentration in which transgenic tobacco grew (tobacco): 15 mM
